According to publication PMC3547835:

Assays:
[1] = target: RHDV VP60 P domain fragment (a.a. 228-579), JX/CHA/97 isolate strain (rabbit hemorrhagic disease virus (JX/CHA/97 isolate strain)); assay: crystal structure; P domain (a.a. 228-579) crystals, space group P212121, hanging drop at 289 K, 0.1 M sodium acetate, 1.1 M succinic acid pH 5.5, 1.0% PEG2000MME; 2.0 Å; dimer in the asymmetric unit
[2] = target: RHDV major capsid protein VP60 (in the native virion, HYD isolate strain) (rabbit hemorrhagic disease virus (HYD isolate strain)); assay: cryo-EM structure; RHDV virions purified from infected rabbit livers, TNE buffer, vitrified; FEI Titan Krios 300 keV; ~36,000 particles; 6.5 Å overall (FSC 0.5), 5.5 Å in the inner shell; pseudo-atomic model by docking of the S and P crystal structures and MDFF

Substance | stoichiometry N [1] | stoichiometry N [2]
RHDV VP60 P domain fragment (a.a. 228-579), JX/CHA/97 isolate strain (domain or fragment) | 2 | –
RHDV major capsid protein VP60 (in the native virion, HYD isolate strain) (natural protein) | – | 180
